According to PMC5408610, “Identification and characterization of a 20β-HSDH from the anaerobic gut bacterium Butyricicoccus desmolans ATCC 43058” (Journal of Lipid Research, 2017):

Assays:
[1] = target: 20β-hydroxysteroid dehydrogenase (20β-HSDH) from Butyricicoccus desmolans ATCC 43058 (Butyricicoccus desmolans ATCC 43058); test: SEC; Superdex 200 analytical column, 4°C; 50 mM Tris-Cl, 300 mM NaCl, 10% glycerol, 10 mM 2-mercaptoethanol, 0.1% Triton X-100, pH 7.5; native mass from retention volume against standard proteins, divided by the subunit mass from SDS-PAGE
purified protein = substrate: C[C@]12CCC(=O)C=C1CC[C@@H]1[C@@H]2[C@@H](O)C[C@@]2(C)[C@H]1CC[C@]2(O)C(=O)CO; test: purified protein; type: biochemical, Agathobaculum desmolans; details: reductive direction, saturating NADH, 0.05 μM enzyme, standard assay 50 mM phosphate pH 7.5, temperature not stated for Km

20β-hydroxysteroid dehydrogenase (20β-HSDH) from Butyricicoccus desmolans ATCC 43058 (enzyme)
stoichiometry N [1]: 3.96

B1: 20β-HSDH (r20β-HSDH, desE) of B. desmolans ATCC 43058 (Agathobaculum desmolans ATCC 43058) (protein)
chain: MAEEFYAVYPKDAWKDPSYRLMDKFSLKGKKGFVTGGGGGIGRNTAAAWAEAGADVALVDIPASKDRLEPLAKEMSERYGVKVVPLYCDVSDEEQVNALKDDLIRELGTVDFAHINAGVCLMGDDVDVPYSTWKKVIDIDLNGAFMTAQVAQQIMREHNHGGSIIMTSSLSGYNANFIGGGPSPVCAYGTAKAGISQLARYMGAGLAPYGIRVNTISPGYIWSGIHEGVMDKAGHDMCLEVVPIKRFGRTDELQGVMLFLASEASSYITGINIPVDGGYSIF
notes: N-terminal Strep-tag from pET-51b(+), E. coli BL21-CodonPlus(DE3) RIPL
Km (purified protein): 0.80 ± 0.06 µM
Vmax (purified protein): 30.4 µmol/min
